According to patent US20230408517A1 (BIO TECHNE, published 2023):
Like-named read-outs stand apart in the source and are kept apart here.

Assays:
[1] = target: T1, BR P.1 variant RBD (R319-F541 with K417T, E484K, N501Y), C-terminal 6-His (SARS-CoV-2, UniProt P0DTC2 319-541); assay: lateral flow NC50, RBD-AuNP vs immobilised ACE2
[2] = target: T2, UK variant RBD (R319-F541 with N501Y), C-terminal 6-His (SARS-CoV-2, UniProt P0DTC2 319-541); assay: lateral flow NC50, RBD-AuNP vs immobilised ACE2
[3] = target: T3, SA variant RBD (R319-F541 with K417N, E484K, N501Y), C-terminal 6-His (SARS-CoV-2, UniProt P0DTC2 319-541); assay: lateral flow NC50, RBD-AuNP vs immobilised ACE2
[4] = target: T4, recombinant SARS-CoV-2 spike S1 RBD (R319-F541), C-terminal 6-His (SARS-CoV-2, UniProt P0DTC2 319-541); assay: lateral flow NC50, RBD-AuNP vs immobilised ACE2
[5] = target: T4, recombinant SARS-CoV-2 spike S1 RBD …; assay: flow cytometry, blocking of binding to hACE-2 cells
[6] = target: T1, BR P.1 variant RBD (R319-F541 with …); assay: sandwich dipstick, detector Ab5-AuNP
[7] = target: T2, UK variant RBD (R319-F541 with N501Y), …; assay: sandwich dipstick, detector Ab5-AuNP
[8] = target: T3, SA variant RBD (R319-F541 with K417N, …); assay: sandwich dipstick, detector Ab5-AuNP
[9] = target: T4, recombinant SARS-CoV-2 spike S1 RBD …; assay: sandwich dipstick, detector Ab5-AuNP
[10] = target: T5, IN v2 variant RBD (R319-F541 with L452R, T478K) (SARS-CoV-2, UniProt P0DTC2 319-541); assay: flow cytometry, blocking of binding to hACE-2 cells
[11] = target: rSARS2 RBD aa319-541, N439K, C-His (SARS-CoV-2, UniProt P0DTC2 319-541); assay: as above
[12] = target: T1, BR P.1 variant RBD (R319-F541 with …); assay: as above
[13] = target: rSARS2-B.1.1.7 S aa16-1211 2x aa mut., C-His (SARS-CoV-2, UniProt P0DTC2 16-1211); assay: as above
[14] = target: rSARS2-B.1.617.2 S aa16-1211 10+4x aa mut., C-His (SARS-CoV-2, UniProt P0DTC2 16-1211); assay: as above
[15] = target: rSARS2-B.1.1.7 S aa16-1211 4x aa mut., C-His (SARS-CoV-2, UniProt P0DTC2 16-1211); assay: as above
[16] = target: T5, IN v2 variant RBD (R319-F541 with …); assay: lateral flow NC50, RBD-AuNP vs immobilised ACE2
[17] = target: T1, BR P.1 variant RBD (R319-F541 with …); assay: lateral flow NC50, RBD-AuNP vs immobilised ACE2; remark: listed apart in the source
[18] = target: IN v1 variant RBD (R319-F541 with L452R, E484Q) (SARS-CoV-2, UniProt P0DTC2 319-541); assay: lateral flow NC50, RBD-AuNP vs immobilised ACE2
[19] = target: BR P.2 variant RBD (R319-F541 with E484K) (SARS-CoV-2, UniProt P0DTC2 319-541); assay: lateral flow NC50, RBD-AuNP vs immobilised ACE2
[20] = target: T2, UK variant RBD (R319-F541 with N501Y), …; assay: lateral flow NC50, RBD-AuNP vs immobilised ACE2; remark: listed apart in the source
[21] = target: T3, SA variant RBD (R319-F541 with K417N, …); assay: lateral flow NC50, RBD-AuNP vs immobilised ACE2; remark: listed apart in the source
[22] = target: L452R RBD (R319-F541 with L452R) (SARS-CoV-2, UniProt P0DTC2 319-541); assay: lateral flow NC50, RBD-AuNP vs immobilised ACE2
[23] = target: T478K RBD (R319-F541 with T478K) (SARS-CoV-2, UniProt P0DTC2 319-541); assay: lateral flow NC50, RBD-AuNP vs immobilised ACE2
[24] = target: K417E RBD (R319-F541 with K417E) (SARS-CoV-2, UniProt P0DTC2 319-541); assay: lateral flow NC50, RBD-AuNP vs immobilised ACE2
[25] = target: T4, recombinant SARS-CoV-2 spike S1 RBD …; assay: lateral flow NC50, RBD-AuNP vs immobilised ACE2; remark: listed apart in the source
[26] = target: T4, recombinant SARS-CoV-2 spike S1 RBD …; assay: flow cytometry, blocking of binding to hACE-2 cells; remark: listed apart in the source
[27] = target: T1, BR P.1 variant RBD (R319-F541 with …); assay: sandwich dipstick, detector Ab4-AuNP
[28] = target: T2, UK variant RBD (R319-F541 with N501Y), …; assay: sandwich dipstick, detector Ab4-AuNP
[29] = target: T3, SA variant RBD (R319-F541 with K417N, …); assay: sandwich dipstick, detector Ab4-AuNP
[30] = target: T4, recombinant SARS-CoV-2 spike S1 RBD …; assay: sandwich dipstick, detector Ab4-AuNP

| Binder | IC50 [1] | IC50 [2] | IC50 [3] | IC50 [4] | percent blocking [5] | percent blocking [10] | percent blocking [11] | percent blocking [12] | percent blocking [13] | percent blocking [14] | percent blocking [15] | IC50 [16] | IC50 [17] | IC50 [18] | IC50 [19] | IC50 [20] | IC50 [21] | IC50 [22] | IC50 [23] | IC50 [24] | other results |
| --- | --- | --- | --- | --- | --- | --- | --- | --- | --- | --- | --- | --- | --- | --- | --- | --- | --- | --- | --- | --- | --- |
| 1035709 (antibody, V domains shown) VH: EVQLQQSGPELVKPGASVKISCKTSGYTFTEYTMHWVKQSHGKSLEWIGGINPNIVDTGYNQKFKGKATLTVDKSSSTAYMELRSLTSEDSAVYYCARDGYPLYYAMDYWGQGTSVTVSS VL: DIQMTQSPSSLSASLGERVSLTCRASQEISGYLSWLQQKPDGTIKRLIYAASTLDSGVPKRFSGSRSGSDYSLTISSLESEDFADYYCLQYASYPWTFGGGTKLEIK | 0.7 µg/mL | 1.08 µg/mL | 0.91 µg/mL | 0.63 µg/mL | 94.7% | 5.3% | 90.8% | 90% | 92.1% | 58.8% | 80.7% | 2.33 µg/mL | 0.7 µg/mL | 0.66 µg/mL | 0.61 µg/mL | 1.08 µg/mL | 0.91 µg/mL | 0.92 µg/mL | 1.35 µg/mL | 0.38 µg/mL | detection sensitivity [6]: 0.001 µg/mL; detection sensitivity [7]: 0.001 µg/mL; detection sensitivity [8]: 0.001 µg/mL; detection sensitivity [9]: 0.001 µg/mL; IC50 [25]: 0.63 µg/mL; percent blocking [26]: 94.7% |
| 1035762 (antibody, V domains shown) VH: EVQLQQSGPELVKPGASVKISCKTSGYTFTEYTMHWVKQSHGKSLEWIGGINPNNGDTGYNQKFKGKATLTVDKSSSTAYMELRSLTFEDSAVYYCARDGYPLYYAMDYWGQGTSVTVSS VL: DIQMTQSPSSLSASLGERVSLTCRASQEISGYLCWLQQKPDGTIKRLIYAASTLDSAVPKRFSGSRSGSDYSLTISSLESEDFADFYCLQYASYPWTFGGGTKLEIK | 0.69 µg/mL | 0.95 µg/mL | 0.7 µg/mL | 0.69 µg/mL | 94.1% | 1.5% | 42.7% | 40.5% | 75.7% | 18.7% | 75.2% | 2.57 µg/mL | 0.69 µg/mL | 0.77 µg/mL | 0.85 µg/mL | 0.95 µg/mL | 0.7 µg/mL | 0.73 µg/mL | 3.77 µg/mL | 0.49 µg/mL | detection sensitivity [6]: 0.001 µg/mL; detection sensitivity [7]: 0.001 µg/mL; detection sensitivity [8]: 0.001 µg/mL; detection sensitivity [9]: 0.001 µg/mL; IC50 [25]: 0.69 µg/mL; percent blocking [26]: 94.1% |
| 1035419 (antibody, V domains shown) VH: QVQLKQSGAELVRPGASVKLSCKTSGYIFTSYWIHWIKQRSGQGLEWIARIYPGTGSTYNNEKFKGKATLTADKSSSTAYMQLSSLKSEDSAVYFCARGEDNLYFYAMDYWGQGTSVTVSS VL: NIVLTQSPASLAVSLGQRATISCRASESVDSYGASFMHWCQQKPGQPPKLLIYLASNLESGVPARFSGSGSRTDFTLTIDPVEADDAATYYCQQNYEDPWTFGGGTKLEIK | 44.8 µg/mL | 27.6 µg/mL | 24 µg/mL | 3.27 µg/mL | 90.2% | 72.5% | 69.3% | 8.7% | 21.8% | 78.5% | 33.3% | 33.2 µg/mL | 44.8 µg/mL | 16.5 µg/mL | 6.48 µg/mL | 27.6 µg/mL | 24 µg/mL | 20.6 µg/mL | 9.01 µg/mL | 1.51 µg/mL | detection sensitivity [27]: 0.01 µg/mL; detection sensitivity [28]: 0.01 µg/mL; detection sensitivity [29]: 0.01 µg/mL; detection sensitivity [30]: 0.01 µg/mL; IC50 [25]: 3.27 µg/mL; percent blocking [26]: 90.2% |
| 1035740 (antibody, V domains shown) VH: EVLLQQSGPELVKPGASVKIPCKASGYTFTDYNMDWVKQSHGKSLEWIGDINPNNGFTIYNQKFKGKATLTVDKSSSTAYMELRSLTSEDTAVYYCAREGYGNYFDYWGQGTTLTVSS VL: DVLLTQSPAILSVSPGERVSFSCRASQSIGTSLHWYQQRTNGSPRLLIKYVSESISGIPSRFSGSGSGTDFTLSINSVESEDIADYYCQQSSSWPTTFGAGTKLELK | 1.4 µg/mL | 1.35 µg/mL | 1.83 µg/mL | 1.43 µg/mL | 94.6% | 96.5% | 96% | 95% | 94.3% | 89.6% | 82.1% | 1.61 µg/mL | 1.4 µg/mL | 1.79 µg/mL | 1.48 µg/mL | 1.35 µg/mL | 1.83 µg/mL | 1.17 µg/mL | 1.21 µg/mL | 1.09 µg/mL | detection sensitivity [27]: 0.01 µg/mL; detection sensitivity [28]: 0.01 µg/mL; detection sensitivity [29]: 0.01 µg/mL; detection sensitivity [30]: 0.01 µg/mL; IC50 [25]: 1.43 µg/mL; percent blocking [26]: 94.6% |
